Results as given in the RNAGym collection of RNA variant scans (doi:10.1093/molbev/msab373).

B1: Azoarcus group I ribozyme (parent)
chain: GUGCCUUGCGCCGGGAAACCACGCAAGGGAUGGUGUCAAAUUCGGCGAAACCUAAGCGCCCGCCCGGGCGUAUGGCAACGCCGAGCCAAGCUUCGGCGCCUGCGCCGAUGAAGGUGUAGAGACUAGACGGCACCCACCUAAGGCAAACGCUAUGGUGAAGGCAUAGUCCAGGGAGUGGCGAAAGUCACACAAACCGG

Variants of: B1
Test: reverse-splicing fitness (ratio to wild type); higher = more active; in vitro selection; Mg2+ level not given
How it was run: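 An in vitro group I ribozyme library with randomized positions was T7-transcribed and gel-purified. In triplicate, 10 pmol RNA in EPPS pH 7.5 was reacted with 50 pmoles of a 30-nt RNA substrate for 1 h at 37 °C across several added MgCl2 levels (1–48 mM), then stopped with EDTA. Products were reverse transcribed from a substrate-complementary primer, PCR-amplified and sequenced (HiSeq 4000). Fitness is a variant's read proportion after selection over that before, normalised to wild type.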

Variant | reverse-splicing fitness
A120G A145C C169U | 0.435
A120G A145C C169G | 0.614
A120G A145G C150G C169G U176A | 0.0179
A120G A145G C150G C169G U176C | 0.0152
A120G A145G C150G C169G U176G | 0.00607
A120G A145U C150A C169U U176C | 0.0534
A120G A145U C150A C169U U176A | 0.0594
A120G A145U C150A C169U U176G | 0.00749
A120G A145G C150A C169G U176A | 0.0656
A120G A145G C150A C169G U176C | 0.0972
A120G A145G C150A C169G U176G | 0.00637
A120U A145C C150G C169G U176A | 0.00551
A120U A145C C150G C169G U176C | 0.00281
A120G A145G U176C | 0.246
A120G A145G U176A | 0.193
A120G A145G U176G | 0.0157
A120G A145G C150A C169A | 0.0788
A120G A145G C150A C169G | 0.141
A120G A145G C150A C169U | 0.107
A120G A145G C150G U176C | 0.0592
A120G A145G C150G U176A | 0.0423
A120G A145G C150G U176G | 0.00816
A120G A145G C150U | 0.436
A120G A145G C150A | 0.0988

Variant | reverse-splicing fitness
A120G A145G C150G | 0.088
A120G C150A U176G | 0.0094
A120G C150A U176A | 0.0445
A120G C150A U176C | 0.058
A120G A145C C169G U176A | 0.202
A120G A145C C169G U176C | 0.235
A120G A145C C169G U176G | 0.0119
A120G C150A C169A U176A | 0.0363
A120G C150A C169A U176C | 0.0393
A120G C150A C169A U176G | 0.00569
A120G C150G | 0.0593
A120G C150A | 0.0647
A120G C150U | 0.318
A120C C150G C169G U176C | 0.00463
A120C C150G C169G U176G | 0.0036
A120C C150G C169G U176A | 0.0074
A120G A145C C150A C169U U176G | 0.00621
A120G A145C C150A C169U U176C | 0.0294
A120G A145C C150A C169U U176A | 0.0398
A120G A145U C169A U176C | 0.166
A120G A145U C169A U176G | 0.00923
A120G A145U C169A U176A | 0.113
A120G A145G C150U C169G U176G | 0.00838
A120G A145G C150U C169G U176A | 0.149

Variant | reverse-splicing fitness
A120G A145G C150U C169G U176C | 0.216
A120G C150G U176A | 0.0287
A120G C150G U176C | 0.0392
A120G C150G U176G | 0.00499
A120G A145G C150U U176A | 0.151
A120G A145G C150U U176G | 0.0181
A120G A145G C150U U176C | 0.212
A120G A145U C169A | 0.447
A120G A145U C169U | 0.446
A120G A145U C169G | 0.618
A120G A145C C150U C169U U176C | 0.0977
A120G A145C C150U C169U U176G | 0.00915
A120G A145C C150U C169U U176A | 0.0904
A120C C150U | 0.723
A120C C150G | 0.187
A120G A145U C150U C169U U176C | 0.162
A120G A145U C150U C169U U176A | 0.14
A120G A145U C150U C169U U176G | 0.0135
A120G A145C C150G C169U U176G | 0.00576
A120G A145C C150G C169U U176A | 0.0356
A120G A145C C150G C169U U176C | 0.054
A120G A145G C150G C169U U176A | 0.0263
A120G A145G C150G C169U U176C | 0.0556
A120G A145G C150G C169U U176G | 0.00777

Variant | reverse-splicing fitness
A120C C150U C169G U176G | 0.00427
A120C C150U C169G U176A | 0.0153
A120C C150U C169G U176C | 0.0142
A120G A145C C150A C169G U176G | 0.00572
A120G A145C C150A C169G U176C | 0.0391
A120G A145C C150A C169G U176A | 0.0447
A120G A145U U176A | 0.197
A120G A145U U176G | 0.0162
A120G A145U U176C | 0.269
A120G A145U C150A C169G | 0.0841
A120G A145U C150A C169U | 0.0677
A120G A145U C150A C169A | 0.0459
A120G A145G C150G C169U | 0.094
A120G A145G C150G C169G | 0.106
A120G A145G C150G C169A | 0.0607
A120G A145G C150U C169A | 0.369
A120G A145G C150U C169U | 0.37
A120G A145G C150U C169G | 0.502
A120C C150A U176G | 0.0764
A120C C150A U176C | 0.195
A120C C150A U176A | 0.184
A120C C169G | 0.029
A120C C169A | 0.0364
A120C C169U | 0.435

Variant | reverse-splicing fitness
A120G C150A C169G U176C | 0.0784
A120G C150A C169G U176G | 0.00584
A120G C150A C169G U176A | 0.0606
A120G A145U C150A U176A | 0.0378
A120G A145U C150A U176C | 0.0519
A120G A145U C150A U176G | 0.00673
A120C C169G U176G | 0.0039
A120C C169G U176C | 0.0166
A120C C169G U176A | 0.016
A120G C150U C169U | 0.284
A120G C150U C169G | 0.419
A120G C150U C169A | 0.29
A120G A145C C150U C169G U176C | 0.107
A120G A145C C150U C169G U176G | 0.00726
A120G A145C C150U C169G U176A | 0.102
A120G A145U C150U C169A | 0.33
A120G A145U C150U C169U | 0.33
A120G A145U C150U C169G | 0.487
A120G A145C C150A U176A | 0.027
A120G A145C C150A U176G | 0.00611
A120G A145C C150A U176C | 0.0279
A120C C150U U176C | 0.596
A120C C150U U176G | 0.181
A120C C150U U176A | 0.643

Variant | reverse-splicing fitness
A120G A145U C150U U176C | 0.184
A120G A145U C150U U176A | 0.155
A120G A145U C150U U176G | 0.0161
A120G A145C C150A C169A U176A | 0.0162
A120G A145C C150A C169A U176G | 0.00472
A120G A145C C150A C169A U176C | 0.0164
A120G A145U C150G U176C | 0.0502
A120G A145U C150G U176A | 0.0351
A120G A145U C150G U176G | 0.00612
A120C C150A C169U U176C | 0.0627
A120C C150A C169U U176G | 0.00663
A120G A145G C150U C169A U176C | 0.157
A120G A145G C150U C169A U176G | 0.0072
A120G A145G C150U C169A U176A | 0.0867
A120G U176G | 0.0139
A120G U176C | 0.222
A120G U176A | 0.213
A120G A145U C150G C169G | 0.0994
A120G A145U C150G C169A | 0.0517
A120G A145U C150G C169U | 0.0748
A120G C169A U176C | 0.189
A120G C169A U176G | 0.00677
A120G C169A U176A | 0.112
A120G C150G C169U U176C | 0.0422

Variant | reverse-splicing fitness
A120G C150G C169U U176A | 0.0245
A120G C150G C169U U176G | 0.00662
A120G A145G C150U C169U U176G | 0.0096
A120G A145G C150U C169U U176A | 0.145
A120G A145G C150U C169U U176C | 0.175
A120G A145C U176G | 0.0166
A120G A145C U176A | 0.179
A120G A145C U176C | 0.227
A120G A145U C150A C169A U176A | 0.0229
A120G A145U C150A C169A U176G | 0.00487
A120G A145U C150A C169A U176C | 0.035
A120G A145C C150G C169U | 0.0909
A120G A145C C150G C169A | 0.0659
A120G A145C C150G C169G | 0.114
A120U A145C C150A C169G | 0.0132
A120U A145C C150A C169U | 0.0192
A120U A145C C150A C169A | 0.0021
A120G C150U C169G U176C | 0.195
A120G C150U C169G U176A | 0.157
A120G C150U C169G U176G | 0.00753
A120G A145C C150G U176C | 0.0556
A120G A145C C150G U176A | 0.0444
A120G A145C C150G U176G | 0.0061
